Test results from PMC12117405 (Nucleic Acids Research, 2025).

Tests used:
Assay in all cases: pull-down
Lsm6/5/7 = Lsm6/5/7 (human, UniProt P62312;Q9Y4Y9;Q9UK45)
SmF/E/G = SmF/E/G (human, UniProt P62306;P62304;P62308)
SmD1/D2 = SmD1/D2 (human, UniProt P62314;P62316)

Lsm6/5/7, sequence (Q9Y4Y9 whole entry, chain 2 of 2): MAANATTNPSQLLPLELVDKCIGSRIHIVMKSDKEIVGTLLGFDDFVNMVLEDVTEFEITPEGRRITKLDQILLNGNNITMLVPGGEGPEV
Lsm6/5/7, sequence (Q9UK45 whole entry, chain 3 of 2): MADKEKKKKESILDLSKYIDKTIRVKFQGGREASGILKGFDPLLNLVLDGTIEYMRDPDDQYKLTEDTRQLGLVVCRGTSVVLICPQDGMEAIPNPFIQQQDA

Binder | binding result (Lsm6/5/7) | binding result (SmF/E/G) | binding result (SmD1/D2)
Lsm2/3 (complex) chain 1: MLFYSFFKSLVGKDVVVELKNDLSICGTLHSVDQYLNIKLTDISVTDPEKYPHMLSVKNCFIRGSVVRYVQLPADEVDTQLLQDAARKEALQQKQ chain 2: not shown | binds |  | 
His-tagged Gemin2/MBP-SMN(26-62) (complex) chain 1: FDPSVPPRTPQEYLRRVQIEAAQCPDVVVAQIDPKKLKRKQSVNISLSGCQPAPEGYSPTLQWQQQQVAQFSTVRQNVNKHRSHWKSQQLDSNVTMPKSEDEEGWKKFCLGEKLCADGAVGPATNESPGIDYVQIGFPPLLSIVSRMNQATVTSVLEYLSNWFGERDFTPELGRWLYALLACLEKPLLPEAHSLIRQLARRCSEVRLLVDSKDDERVPALNLLICLVSRYFDQRDLADEPS chain 2: GQSDDSDIWDDTALIKAYDKAVASFKHALKNGDICET |  | binds | binds
